Blank lines part the entries; values can stand above or below the binder they belong to.
Experiments:
Test in all cases: holdup assay
Parameters in all cases: key: below the threshold = too weak to quantify, mostly under pKd 3.1 to 4
NHERF3_4, Q5T2W1 = biological target: T1, NHERF3_4, Q5T2W1
T1 sequence (Q5T2W1 373-468, limits assumed, looked up): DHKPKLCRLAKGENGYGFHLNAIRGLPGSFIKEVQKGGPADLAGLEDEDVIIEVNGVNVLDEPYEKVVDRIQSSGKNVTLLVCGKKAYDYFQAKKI

FRMPD3, Q5JV73 = biological target: FRMPD3, Q5JV73
LNX1_1, Q8TBB1 = biological target: LNX1_1, Q8TBB1
Sequence of LNX1_1, Q8TBB1 (Q8TBB1 261-371): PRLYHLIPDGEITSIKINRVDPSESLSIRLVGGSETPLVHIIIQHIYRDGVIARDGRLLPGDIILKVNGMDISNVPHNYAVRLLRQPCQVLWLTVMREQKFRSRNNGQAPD

SNTG1, Q9NSN8 = biological target: T2, SNTG1, Q9NSN8
T2 sequence (Q9NSN8 52-150, limits assumed, looked up): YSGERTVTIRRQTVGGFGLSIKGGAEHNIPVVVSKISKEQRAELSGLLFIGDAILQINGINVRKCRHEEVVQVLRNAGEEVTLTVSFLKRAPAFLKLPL

LNX2_2, Q8N448 = biological target: T3, LNX2_2, Q8N448
T3 sequence (Q8N448 334-432, limits assumed, looked up): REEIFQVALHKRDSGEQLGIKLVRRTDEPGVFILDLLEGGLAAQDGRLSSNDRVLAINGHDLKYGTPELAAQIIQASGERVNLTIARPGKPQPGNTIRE

Inadl_8, Q8NI35 = biological target: Inadl_8, Q8NI35
Sequence of Inadl_8, Q8NI35 (Q8NI35 1425-1530): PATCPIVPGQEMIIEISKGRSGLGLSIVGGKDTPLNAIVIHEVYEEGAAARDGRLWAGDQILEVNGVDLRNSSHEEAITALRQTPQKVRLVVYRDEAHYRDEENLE

RHPN1, Q8TCX5 = biological target: T4, RHPN1, Q8TCX5
T4 sequence (Q8TCX5 508-602, limits assumed, looked up): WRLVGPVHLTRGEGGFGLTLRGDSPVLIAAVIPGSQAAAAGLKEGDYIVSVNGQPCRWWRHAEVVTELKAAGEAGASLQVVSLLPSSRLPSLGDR

GORASP1, Q9BQQ3 = biological target: GORASP1, Q9BQQ3
Sequence of GORASP1, Q9BQQ3 (Q9BQQ3 1-208): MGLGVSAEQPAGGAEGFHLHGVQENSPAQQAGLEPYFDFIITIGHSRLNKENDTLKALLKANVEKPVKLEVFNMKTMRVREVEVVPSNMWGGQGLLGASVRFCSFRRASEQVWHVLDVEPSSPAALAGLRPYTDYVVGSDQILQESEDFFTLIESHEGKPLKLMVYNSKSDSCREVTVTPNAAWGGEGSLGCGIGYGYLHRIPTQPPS

TJP1_2, Q07157 = biological target: TJP1_2, Q07157
Sequence of TJP1_2, Q07157 (Q07157 181-274): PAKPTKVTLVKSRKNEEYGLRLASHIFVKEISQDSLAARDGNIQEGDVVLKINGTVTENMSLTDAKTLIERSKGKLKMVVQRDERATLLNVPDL

LIN7C, Q9NUP9 = biological target: T5, LIN7C, Q9NUP9
T5 sequence (Q9NUP9 88-185, limits assumed, looked up): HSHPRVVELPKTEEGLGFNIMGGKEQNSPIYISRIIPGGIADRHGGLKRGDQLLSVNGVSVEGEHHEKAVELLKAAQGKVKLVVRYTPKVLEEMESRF

MAGI1_2, Q96QZ7 = biological target: MAGI1_2, Q96QZ7
Sequence of MAGI1_2, Q96QZ7 (Q96QZ7 456-580): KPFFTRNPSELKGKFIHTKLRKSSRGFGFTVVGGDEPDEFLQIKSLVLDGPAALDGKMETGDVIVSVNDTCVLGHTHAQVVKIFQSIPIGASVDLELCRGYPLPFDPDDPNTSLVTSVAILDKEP

DLG3_2, Q92796 = biological target: T6, DLG3_2, Q92796
T6 sequence (Q92796 221-321, limits assumed, looked up): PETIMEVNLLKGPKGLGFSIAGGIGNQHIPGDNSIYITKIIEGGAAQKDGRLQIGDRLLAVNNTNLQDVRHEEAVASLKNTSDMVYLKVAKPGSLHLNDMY

MAST1, Q9Y2H9 = biological target: MAST1, Q9Y2H9
Sequence of MAST1, Q9Y2H9 (Q9Y2H9 962-1065): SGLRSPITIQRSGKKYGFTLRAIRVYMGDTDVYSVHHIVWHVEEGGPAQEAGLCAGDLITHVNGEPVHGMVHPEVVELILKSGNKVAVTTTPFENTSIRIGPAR

MAGI2_3, Q86UL8 = biological target: MAGI2_3, Q86UL8
Sequence of MAGI2_3, Q86UL8 (Q86UL8 600-682): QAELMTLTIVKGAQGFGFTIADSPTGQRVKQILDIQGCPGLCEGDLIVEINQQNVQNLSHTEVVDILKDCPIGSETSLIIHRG

GORASP2, Q9H8Y8 = biological target: GORASP2, Q9H8Y8
SHANK1, Q9Y566 = biological target: T7, SHANK1, Q9Y566
T7 sequence (Q9Y566 658-767, limits assumed, looked up): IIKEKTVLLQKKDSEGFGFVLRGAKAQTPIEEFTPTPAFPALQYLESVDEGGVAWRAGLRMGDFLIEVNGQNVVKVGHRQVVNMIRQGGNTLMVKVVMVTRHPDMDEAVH

DLG4_2, P78352 = biological target: DLG4_2, P78352
Sequence of DLG4_2, P78352 (P78352 155-259): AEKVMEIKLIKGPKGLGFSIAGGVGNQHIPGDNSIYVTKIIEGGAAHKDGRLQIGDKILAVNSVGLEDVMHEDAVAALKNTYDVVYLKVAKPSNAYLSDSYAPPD

NHERF3_1, Q5T2W1 = biological target: T8, NHERF3_1, Q5T2W1
T8 sequence (Q5T2W1 4-100, limits assumed, looked up): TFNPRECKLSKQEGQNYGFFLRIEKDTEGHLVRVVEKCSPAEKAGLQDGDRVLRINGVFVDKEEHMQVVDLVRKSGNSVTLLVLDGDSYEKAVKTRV

NHERF4_2, Q86UT5 = biological target: NHERF4_2, Q86UT5
Sequence of NHERF4_2, Q86UT5 (Q86UT5 220-308): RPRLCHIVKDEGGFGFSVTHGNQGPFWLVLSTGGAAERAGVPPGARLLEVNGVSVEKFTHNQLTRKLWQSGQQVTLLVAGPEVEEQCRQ

DFNB31_3, Q9P202 = biological target: T9, DFNB31_3, Q9P202
T9 sequence (Q9P202 811-907, limits assumed, looked up): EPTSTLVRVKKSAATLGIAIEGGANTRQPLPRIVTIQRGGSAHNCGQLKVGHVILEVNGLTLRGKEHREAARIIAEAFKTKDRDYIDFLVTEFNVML

MPP2, Q14168 = biological target: T10, MPP2, Q14168
T10 sequence (Q14168 180-250, limits assumed, looked up): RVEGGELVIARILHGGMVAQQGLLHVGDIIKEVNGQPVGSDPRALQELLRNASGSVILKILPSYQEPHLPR

SCRIB_1, Q14160 = biological target: SCRIB_1, Q14160
Sequence of SCRIB_1, Q14160 (Q14160 718-814): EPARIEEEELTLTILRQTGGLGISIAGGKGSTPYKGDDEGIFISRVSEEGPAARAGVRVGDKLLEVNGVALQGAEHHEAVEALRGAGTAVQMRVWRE

SYNJ2BP, P57105 = biological target: T11, SYNJ2BP, P57105
T11 sequence (P57105 8-110, limits assumed, looked up): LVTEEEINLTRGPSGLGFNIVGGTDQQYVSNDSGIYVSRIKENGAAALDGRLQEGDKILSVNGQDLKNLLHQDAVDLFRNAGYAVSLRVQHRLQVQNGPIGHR

NHERF2_2, Q15599 = biological target: NHERF2_2, Q15599
Sequence of NHERF2_2, Q15599 (Q15599 142-238): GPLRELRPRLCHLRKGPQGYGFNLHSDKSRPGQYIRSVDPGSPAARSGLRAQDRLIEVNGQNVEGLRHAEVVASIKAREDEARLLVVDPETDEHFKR

PDZRN4_1, Q6ZMN7 = biological target: PDZRN4_1, Q6ZMN7
Sequence of PDZRN4_1, Q6ZMN7 (Q6ZMN7 213-318): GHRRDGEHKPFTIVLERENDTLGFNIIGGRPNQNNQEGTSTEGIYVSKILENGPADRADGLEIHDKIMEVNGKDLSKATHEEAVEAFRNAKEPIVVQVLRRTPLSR

DLG4_1, P78352 = biological target: DLG4_1, P78352
Sequence of DLG4_1, P78352 (P78352 62-152): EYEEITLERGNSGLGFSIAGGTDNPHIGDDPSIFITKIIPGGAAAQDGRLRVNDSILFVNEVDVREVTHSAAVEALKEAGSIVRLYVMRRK

PTPN3, P26045 = biological target: PTPN3, P26045
Sequence of PTPN3, P26045 (P26045 505-587): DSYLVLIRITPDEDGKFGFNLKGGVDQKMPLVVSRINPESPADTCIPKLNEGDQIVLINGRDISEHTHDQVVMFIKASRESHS

[1] = plain residues with an end cap or a label only (N-terminal biotin on a linker: gsgsgs; C-terminal amide)
[2] = plain residues with an end cap or a label only (N-terminal biotin on a linker: ahx)

Sequence of FRMPD3, Q5JV73 (Q5JV73 12-100): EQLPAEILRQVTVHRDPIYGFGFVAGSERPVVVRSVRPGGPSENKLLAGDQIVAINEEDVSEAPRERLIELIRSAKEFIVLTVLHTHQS

pKd (NHERF3_4, Q5T2W1; [1]): below the threshold
pKd (FRMPD3, Q5JV73; [1]): below the threshold
pKd (LNX1_1, Q8TBB1; [1]): below the threshold
pKd (SNTG1, Q9NSN8; [1]): below the threshold
pKd (LNX2_2, Q8N448; [1]): below the threshold
pKd (Inadl_8, Q8NI35; [1]): below the threshold
pKd (RHPN1, Q8TCX5; [1]): below the threshold
pKd (GORASP1, Q9BQQ3; [1]): below the threshold
pKd (TJP1_2, Q07157; [1]): below the threshold
pKd (LIN7C, Q9NUP9; [1]): 4.12
pKd (MAGI1_2, Q96QZ7; [1]): below the threshold
pKd (DLG3_2, Q92796; [1]): 4.12
pKd (MAST1, Q9Y2H9; [1]): below the threshold
pKd (MAGI2_3, Q86UL8; [1]): below the threshold
pKd (GORASP2, Q9H8Y8; [1]): below the threshold
pKd (SHANK1, Q9Y566; [1]): below the threshold
pKd (DLG4_2, P78352; [1]): below the threshold
pKd (NHERF3_1, Q5T2W1; [1]): below the threshold
pKd (NHERF4_2, Q86UT5; [1]): below the threshold
pKd (DFNB31_3, Q9P202; [1]): 4.02
pKd (MPP2, Q14168; [1]): below the threshold
pKd (SCRIB_1, Q14160; [1]): below the threshold
pKd (SYNJ2BP, P57105; [1]): below the threshold
pKd (NHERF2_2, Q15599; [1]): below the threshold
pKd (PDZRN4_1, Q6ZMN7; [1]): below the threshold
pKd (DLG4_1, P78352; [1]): below the threshold
pKd (PTPN3, P26045; [1]): 3.68
Binder: VSVDDVRSTSQGLSSY [DFNB31_int, Q9P202]

pKd (NHERF3_4, Q5T2W1; [2]): below the threshold
pKd (FRMPD3, Q5JV73; [2]): below the threshold
pKd (LNX1_1, Q8TBB1; [2]): below the threshold
pKd (SNTG1, Q9NSN8; [2]): below the threshold
pKd (LNX2_2, Q8N448; [2]): below the threshold
pKd (Inadl_8, Q8NI35; [2]): below the threshold
pKd (RHPN1, Q8TCX5; [2]): below the threshold
pKd (GORASP1, Q9BQQ3; [2]): below the threshold
pKd (TJP1_2, Q07157; [2]): below the threshold
pKd (LIN7C, Q9NUP9; [2]): below the threshold
pKd (MAGI1_2, Q96QZ7; [2]): below the threshold
pKd (DLG3_2, Q92796; [2]): below the threshold
pKd (MAST1, Q9Y2H9; [2]): below the threshold
pKd (MAGI2_3, Q86UL8; [2]): below the threshold
pKd (GORASP2, Q9H8Y8; [2]): below the threshold
pKd (SHANK1, Q9Y566; [2]): below the threshold
pKd (DLG4_2, P78352; [2]): below the threshold
pKd (NHERF3_1, Q5T2W1; [2]): below the threshold
pKd (NHERF4_2, Q86UT5; [2]): below the threshold
pKd (DFNB31_3, Q9P202; [2]): below the threshold
pKd (MPP2, Q14168; [2]): below the threshold
pKd (SCRIB_1, Q14160; [2]): below the threshold
pKd (SYNJ2BP, P57105; [2]): below the threshold
pKd (NHERF2_2, Q15599; [2]): below the threshold
pKd (PDZRN4_1, Q6ZMN7; [2]): below the threshold
pKd (DLG4_1, P78352; [2]): below the threshold
pKd (PTPN3, P26045; [2]): below the threshold
Binder: PSASCAVTAA [PDLIM4, P50479;P50479-2]

Reference: publication PMC9482650, “Quantitative fragmentomics allow affinity mapping of interactomes” (Nature Communications, 2022)
